Response (% of *001 TW10) data for five variants are collected here from publication PMC3948114.

To fix the notation:
B1: unnamed (parent)
chain 1: HMGGQDKPFLSAWPSAVVPRGGHVTLRCHYRHRFNNFMLYKEDRIHIPIFHGRIFQESFNMSPVTTAHAGNYTCRGSHPHSPTGWSAPSNPVVIMVTGNHRKPSLLAHPGPLVKSGERVILQCWSDIMFEHFFLHKEGISKDPSRLVGQIHDGVSKANFSIGPMMLALAGTYRCYGSVTHTPYQLSAPSDPLDIVVTGPYEKPSLSAQPGPKVQAGESVTLSCSSRSSYDMYHLSREGGAHERRLPAVRKVNRTFQADFPLGPATHGGTYRCFGSFRHSPYEWSDPSDPLLVSVTGNPSSSWPSPTEPSSKSGNPRHLHILIGTSVVIILFILLLFFLLHLWCSNKKNAAVMDQEPAGNRTANSEDSDEQDPEEVTYAQLDHCVFTQRKITRPSQRPKTPPTDTILYTELPNAKPRSKVVSCP
chain 2: not shown
chain 3: not shown
chain 4: TSTLQEQIDW

Variants of B1 are the subject of this experiment. As to the kind of experiment: tetramer staining of transfected HEK293 cells. To be noted: with partner chain of the complex shown; 0.2 μg tetramer; read off a plot.
In the case of chain 1 A167G, the response (% of *001 TW10) came out at 10.

As for chain 1 L166A, the response (% of *001 TW10) stood at 90. For the variant chain 1 L166V, the response (% of *001 TW10) worked out at 46.

For the variant chain 1 E282Q, the response (% of *001 TW10) turned out to be 130. Turning to chain 1 E282A, the response (% of *001 TW10) was 26.
